The term Kd denotes the equilibrium constant for the complex coming apart. A higher Kd goes with lower affinity.

The target in the assay is Notch1(EGF1-36) (amino acids 20-1426) (human, UniProt P46531 20-1426, biotin, chemically at the N-terminus (EZ-Link Sulfo-NHS-Biotin)). Put plainly: SPR. For orientation: In SPR one partner is held on a chip, and binding of the other changes the refractive index at the surface.
Sequence of Notch1(EGF1-36) (amino acids 20-1426) (P46531 20-1426): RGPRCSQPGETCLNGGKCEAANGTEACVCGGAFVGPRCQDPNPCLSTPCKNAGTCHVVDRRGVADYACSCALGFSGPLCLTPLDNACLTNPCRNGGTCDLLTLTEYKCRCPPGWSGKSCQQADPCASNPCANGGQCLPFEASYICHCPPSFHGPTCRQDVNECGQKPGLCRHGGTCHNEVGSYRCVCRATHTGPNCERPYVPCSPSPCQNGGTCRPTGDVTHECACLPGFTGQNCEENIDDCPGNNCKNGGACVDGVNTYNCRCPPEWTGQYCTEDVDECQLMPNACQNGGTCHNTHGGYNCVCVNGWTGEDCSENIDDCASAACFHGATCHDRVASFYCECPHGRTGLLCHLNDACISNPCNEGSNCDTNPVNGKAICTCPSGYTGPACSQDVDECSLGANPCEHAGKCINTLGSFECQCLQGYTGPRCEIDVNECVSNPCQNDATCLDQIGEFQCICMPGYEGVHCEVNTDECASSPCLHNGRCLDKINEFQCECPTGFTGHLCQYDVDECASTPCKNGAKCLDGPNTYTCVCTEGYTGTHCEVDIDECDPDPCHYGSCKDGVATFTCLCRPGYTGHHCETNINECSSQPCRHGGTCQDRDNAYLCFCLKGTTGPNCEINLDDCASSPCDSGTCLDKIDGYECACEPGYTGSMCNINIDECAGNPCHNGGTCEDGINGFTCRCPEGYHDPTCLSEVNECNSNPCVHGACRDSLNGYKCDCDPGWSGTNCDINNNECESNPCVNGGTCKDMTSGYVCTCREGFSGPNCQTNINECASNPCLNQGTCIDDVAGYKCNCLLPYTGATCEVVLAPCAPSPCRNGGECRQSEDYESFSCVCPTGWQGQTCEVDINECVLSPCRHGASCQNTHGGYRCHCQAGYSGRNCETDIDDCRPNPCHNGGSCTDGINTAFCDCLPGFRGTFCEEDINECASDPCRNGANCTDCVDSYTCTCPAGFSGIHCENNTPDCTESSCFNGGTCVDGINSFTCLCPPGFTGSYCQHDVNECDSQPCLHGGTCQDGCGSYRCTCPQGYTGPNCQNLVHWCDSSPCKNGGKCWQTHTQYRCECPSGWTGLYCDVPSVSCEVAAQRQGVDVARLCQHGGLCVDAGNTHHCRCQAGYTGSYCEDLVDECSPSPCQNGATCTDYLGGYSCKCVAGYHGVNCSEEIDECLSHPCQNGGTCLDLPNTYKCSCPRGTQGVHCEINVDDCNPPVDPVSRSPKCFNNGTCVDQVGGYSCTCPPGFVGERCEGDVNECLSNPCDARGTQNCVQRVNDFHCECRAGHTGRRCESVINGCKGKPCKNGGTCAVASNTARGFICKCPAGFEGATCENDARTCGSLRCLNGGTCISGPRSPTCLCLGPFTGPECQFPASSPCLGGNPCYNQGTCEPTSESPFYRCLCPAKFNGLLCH

B1: Human DLL4 (N-EGF5, amino acids 27-400) (domain or fragment)
chain: SGVFQLQLQEFINERGVLASGRPCEPGCRTFFRVCLKHFQAVVSPGPCTFGTVSTPVLGTNSFAVRDDSSGGGRNPLQLPFNFTWPGTFSLIIEAWHAPGDDLRPEALPPDALISKIAIQGSLAVGQNWLLDEQTSTLTRLRYSYRVICSDNYYGDNCSRLCKKRNDHFGHYVCQPDGNLSCLPGWTGEYCQQPICLSGCHEQNGYCSKPAECLCRPGWQGRLCNECIPHNGCRHGTCSTPWQCTCDEGWGGLFCDQDLNYCTHHSPCKNGATCSNSGQRSYTCTCRPGYTGVDCELELSECDSNPCRNGGSCKDQEDGYHCLCPPGYYGLHCEHSTLSCADSPCFNGGSCRERNQGANYACECPPNFTGSNCE
B1 had a Kd of 7.7 µM.

For the origin of these results see paper PMC12216052 (2025).
